Experimental data taken from patent US20220396635A1 (UNIVERSIT T STUTTGART, published 2022).

T1: CEA (UniProt P06731 35-685)
T1 sequence (looked up): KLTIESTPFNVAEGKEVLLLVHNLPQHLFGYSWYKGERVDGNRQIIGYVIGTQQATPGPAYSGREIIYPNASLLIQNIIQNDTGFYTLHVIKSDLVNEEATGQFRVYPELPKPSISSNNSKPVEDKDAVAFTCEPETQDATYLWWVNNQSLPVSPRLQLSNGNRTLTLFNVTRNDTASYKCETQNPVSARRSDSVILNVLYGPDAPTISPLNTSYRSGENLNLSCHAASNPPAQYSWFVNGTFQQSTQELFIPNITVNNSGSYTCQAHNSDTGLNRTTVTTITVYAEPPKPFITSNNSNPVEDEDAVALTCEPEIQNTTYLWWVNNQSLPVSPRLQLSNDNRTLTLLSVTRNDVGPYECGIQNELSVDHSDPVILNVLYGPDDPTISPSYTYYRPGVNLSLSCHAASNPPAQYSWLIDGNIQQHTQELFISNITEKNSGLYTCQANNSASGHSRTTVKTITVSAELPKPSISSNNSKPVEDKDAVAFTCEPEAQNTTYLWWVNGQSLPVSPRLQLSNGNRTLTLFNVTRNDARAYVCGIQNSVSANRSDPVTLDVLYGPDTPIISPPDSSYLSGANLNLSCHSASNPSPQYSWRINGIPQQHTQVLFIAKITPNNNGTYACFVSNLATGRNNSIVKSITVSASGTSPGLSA

B1: scDb/scFv-Fc (1-1)+2, trivalent bispecific anti-FAPxanti-CD3 (bispecific antibody)
chain 1: QVQLVQSGAEVKKPGASVKVSCKASGYTFTENIIHWVRQAPGQGLEWMGWFHPGSGSIKYNEKFKDRVTMTADTSTSTVYMELSSLRSEDTAVYYCARHGGTGRGAMDYWGQGTLVTVSSGGGGSDIQMTQSPSSLSASVGDRVTITCRASKSVSTSAYSYMHWYQQKPGKAPKLLIYLASNLESGVPSRFSGSGSGTDFTLTISSLQPEDFATYYCQHSRELPYTFGQGTKLEIKRGGGGSGGGGSQVQLVQSGAEVKKPGASVKVSCKASGYTFTENIIHWVRQAPGQGLEWMGWFHPGSGSIKYNEKFKDRVTMTADTSTSTVYMELSSLRSEDTAVYYCARHGGTGRGAMDYWGQGTLVTVGGGGSDIQMTQSPSSLSASVGDRVTITCRASKSVSTSAYSYMHWYQQKPGKAPKLLIYLASNLESGVPSRFSGSGSGTDFTLTISSLQPEDFATYYCQHSRELPYTFGQGTKLEIKRAAADKTHTCPPCPAPPVAGPSVFLFPPKPKDTLMISRTPEVTCVVVDVSHEDPEVKFNWYVDGVEVHNAKTKPREEQYNSTYRVVSVLTVLHQDWLNGKEYKCKVSNKGLPSSIEKTISKAKGQPREPQVCTLPPSRDELTKNQVSLSCAVKGFYPSDIAVEWESNGQPENNYKTTPPVLDSDGSFFLVSKLTVDKSRWQQGNVFSCSVMHEALHNHYTQKSLSLSPGK
chain 2: DIQMTQSPSSLSASVGDRVTITCRASQDIRNYLNWYQQKPGKAPKLLIYYTSRLHSGVPSRFSGSGSGTDFTFTISSLQPEDIATYYCQQGNTLPWTFGQGTKLEIKRGGGGSGGGGSGGGGSQVQLVQSGAEVKKPGSSVKVSCKASGGTFSGYTMNWVRQAPGQGLEWMGLINPYKGVSTYNGKFKDRVTITADKSTSTAYMELSSLRSEDTAVYYCARSGYYGDSDWYFDVWGQGTLVTVSSAAADKTHTCPPCPAPPVAGPSVFLFPPKPKDTLMISRTPEVTCVVVDVSHEDPEVKFNWYVDGVEVHNAKTKPREEQYNSTYRVVSVLTVLHQDWLNGKEYKCKVSNKGLPSSIEKTISKAKGQPREPQVYTLPPCRDELTKNQVSLWCLVKGFYPSDIAVEWESNGQPENNYKTTPPVLDSDGSFFLYSKLTVDKSRWQQGNVFSCSVMHEALHNHYTQKSLSLSPGK
notes: also called scDbFAPxFAP-Fc(hole)Δab + scFvhuU3-Fc(knob)Δab
B2: scDb/scFv-Fc (1-2)+1, trivalent bispecific anti-CEAxanti-CD3 (bispecific antibody)
chain 1: QVKLQQSGAELVRSGTSVKLSCTASGFNIKDSYMHWLRQGPEQGLEWIGWIDPENGDTEYAPKFQGKATFTTDTSSNTAYLQLSSLTSEDTAVYYCNEGTPTGPYYFDYWGQGTTVTVSSGGGGSDIQMTQSPSSLSASVGDRVTITCRASQDIRNYLNWYQQKPGKAPKLLIYYTSRLHSGVPSRFSGSGSGTDFTFTISSLQPEDIATYYCQQGNTLPWTFGQGTKLEIKRGGGGSGGGGSGGGGSQVQLVQSGAEVKKPGSSVKVSCKASGGTFSGYTMNWVRQAPGQGLEWMGLINPYKGVSTYNGKFKDRVTITADKSTSTAYMELSSLRSEDTAVYYCARSGYYGDSDWYFDVWGQGTLVTVSSGGGGSDIELTQSPAIMSASPGEKVTITCSASSSVSYMHWFQQKPGTSPKLWIYSTSNLASGVPARFSGSGSGTSYSLTISRMEAEDAATYYCQQRSSYPLTFGAGTKLELKRAAADKTHTCPPCPAPPVAGPSVFLFPPKPKDTLMISRTPEVTCVVVDVSHEDPEVKFNWYVDGVEVHNAKTKPREEQYNSTYRVVSVLTVLHQDWLNGKEYKCKVSNKGLPSSIEKTISKAKGQPREPQVCTLPPSRDELTKNQVSLSCAVKGFYPSDIAVEWESNGQPENNYKTTPPVLDSDGSFFLVSKLTVDKSRWQQGNVFSCSVMHEALHNHYTQKSLSLSPGK
chain 2: QVKLQQSGAELVRSGTSVKLSCTASGFNIKDSYMHWLRQGPEQGLEWIGWIDPENGDTEYAPKFQGKATFTTDTSSNTAYLQLSSLTSEDTAVYYCNEGTPTGPYYFDYWGQGTTVTVSSGGGGSGGGGSGGGGSDIELTQSPAIMSASPGEKVTITCSASSSVSYMHWFQQKPGTSPKLWIYSTSNLASGVPARFSGSGSGTSYSLTISRMEAEDAATYYCQQRSSYPLTFGAGTKLELKRAAADKTHTCPPCPAPPVAGPSVFLFPPKPKDTLMISRTPEVTCVVVDVSHEDPEVKFNWYVDGVEVHNAKTKPREEQYNSTYRVVSVLTVLHQDWLNGKEYKCKVSNKGLPSSIEKTISKAKGQPREPQVYTLPPCRDELTKNQVSLWCLVKGFYPSDIAVEWESNGQPENNYKTTPPVLDSDGSFFLYSKLTVDKSRWQQGNVFSCSVMHEALHNHYTQKSLSLSPGK
notes: also called scDbCEAxhuU3-Fc(hole)Δab + scFvCEA-Fc(knob)Δab
B3: scDb/scFv-Fc (2-1)+1, trivalent bispecific anti-CEAxanti-CD3 (bispecific antibody)
chain 1: QVQLVQSGAEVKKPGSSVKVSCKASGGTFSGYTMNWVRQAPGQGLEWMGLINPYKGVSTYNGKFKDRVTITADKSTSTAYMELSSLRSEDTAVYYCARSGYYGDSDWYFDVWGQGTLVTVSSGGGGSDIELTQSPAIMSASPGEKVTITCSASSSVSYMHWFQQKPGTSPKLWIYSTSNLASGVPARFSGSGSGTSYSLTISRMEAEDAATYYCQQRSSYPLTFGAGTKLELKRGGGGSGGGGSGGGGSQVKLQQSGAELVRSGTSVKLSCTASGFNIKDSYMHWLRQGPEQGLEWIGWIDPENGDTEYAPKFQGKATFTTDTSSNTAYLQLSSLTSEDTAVYYCNEGTPTGPYYFDYWGQGTTVTVSSGGGGSDIQMTQSPSSLSASVGDRVTITCRASQDIRNYLNWYQQKPGKAPKLLIYYTSRLHSGVPSRFSGSGSGTDFTFTISSLQPEDIATYYCQQGNTLPWTFGQGTKLEIKRAAADKTHTCPPCPAPPVAGPSVFLFPPKPKDTLMISRTPEVTCVVVDVSHEDPEVKFNWYVDGVEVHNAKTKPREEQYNSTYRVVSVLTVLHQDWLNGKEYKCKVSNKGLPSSIEKTISKAKGQPREPQVCTLPPSRDELTKNQVSLSCAVKGFYPSDIAVEWESNGQPENNYKTTPPVLDSDGSFFLVSKLTVDKSRWQQGNVFSCSVMHEALHNHYTQKSLSLSPGK
chain 2: B2 chain 2
notes: also called scDbhuU3xCEA-Fc(hole)Δab + scFvCEA-Fc(knob)Δab
B4: scDb/Fab-Fc (1-2)+1, trivalent bispecific anti-CEAxanti-CD3 (bispecific antibody, human IgG1, kappa)
chain: B2 chain 1
heavy: QVKLQQSGAELVRSGTSVKLSCTASGFNIKDSYMHWLRQGPEQGLEWIGWIDPENGDTEYAPKFQGKATFTTDTSSNTAYLQLSSLTSEDTAVYYCNEGTPTGPYYFDYWGQGTTVTVSSASTKGPSVFPLAPSSKSTSGGTAALGCLVKDYFPEPVTVSWNSGALTSGVHTFPAVLQSSGLYSLSSVVTVPSSSLGTQTYICNVNHKPSNTKVDKKVEPKSCDKTHTCPPCPAPPVAGPSVFLFPPKPKDTLMISRTPEVTCVVVDVSHEDPEVKFNWYVDGVEVHNAKTKPREEQYNSTYRVVSVLTVLHQDWLNGKEYKCKVSNKGLPSSIEKTISKAKGQPREPQVYTLPPCRDELTKNQVSLWCLVKGFYPSDIAVEWESNGQPENNYKTTPPVLDSDGSFFLYSKLTVDKSRWQQGNVFSCSVMHEALHNHYTQKSLSLSPGK
light: DIELTQSPAIMSASPGEKVTITCSASSSVSYMHWFQQKPGTSPKLWIYSTSNLASGVPARFSGSGSGTSYSLTISRMEAEDAATYYCQQRSSYPLTFGAGTKLELKRRTVAAPSVFIFPPSDEQLKSGTASVVCLLNNFYPREAKVQWKVDNALQSGNSQESVTEQDSKDSTYSLSSTLTLSKADYEKHKVYACEVTHQGLSSPVTKSFNRGEC
notes: also called scDbCEAxhuU3-Fc(hole)Δab + VHCEA-CH1-Fc(knob)Δab + VLCEA-CLκ

Key:
FAP = molecular target: T2, FAP (UniProt Q12884 1-760, limits assumed); assay: flow cytometry, serial dilution on HT1080-FAP cells (FAP-expressing), PE anti-human Fc detection
T2 construct: whole, on cells; also called FAP on HT1080-FAP cells
Experimental: (§1) Binding of trivalent, bispecific fusion proteins to FAP-expressing (HT1080-FAP) cell lines was analyzed by flow cytometry. 2×10⁵ cells/well were incubated with a serial dilution of trivalent, bispecific antibodies for 1 h at 4° C. followed by detection using a PE-conjugated anti-human Fc antibody (Jackson ImmunoResearch Laboratories Inc).

CEA [1] = molecular target: T1, CEA; assay: cell-based or functional assay
CEA [2] = molecular target: T1, CEA; assay: cell-based or functional assay; remark: listed apart in the source
CD3 = molecular target: T3, CD3 (UniProt P07766 23-207); assay: flow cytometry, serial dilution on Jurkat cells (CD3-expressing), PE anti-human Fc detection
T3 construct: whole, on cells; on cells it stands in the TCR/CD3 complex; also called CD3 on Jurkat cells
Experimental: as §1, with “CEA-expressing (LIM1215) and CD3-expressing (Jurkat)” for “FAP-expressing (HT1080-FAP)”, “Inc). […] Regarding the CEA-expressing cell line LIM1215, the trivalent, bispecific antibodies bound with EC₅₀ values in the nanomolar range (FIG. 16A) (Table 9).” for “Inc).”

CEA [3] = molecular target: T1, CEA; assay: flow cytometry, serial dilution on LIM1215 cells (CEA-expressing), PE anti-human Fc detection
Experimental: as §1, with “CEA-expressing (LIM1215) and CD3-expressing (Jurkat)” for “FAP-expressing (HT1080-FAP)”, “Inc). […] Regarding the CEA-expressing cell line LIM1215, the trivalent, bispecific antibodies bound with EC₅₀ values in the nanomolar range (FIG. 16A) (Table 9).” for “Inc).”

Row | Binder | EC50 (FAP) [nM] | EC50 of PBMC cytotoxicity on LIM1215 cells, E:T 10:1 (CEA [1]) [nM] | EC50 of IL-2 release, PBMCs co-cultured with LIM1215 cells (CEA [2]) [nM] | EC50 (CD3) [nM] | EC50 (CEA [3]) [nM]
1 | B1 | 1 |  |  |  | 
2 | B2 |  | 0.5 | 1.4 | 7.7 | 1.6
3 | B3 |  | 0.3 | 1.4 | 7.9 | 1.7
4 | B4 |  | 0.4 | 0.5 | 5.7 | 2.5
